From patent US11319374B2, “Inhibitors of prototypic galectin dimerization and uses thereof” (INSTITUT NATIONAL DE LA RECHERCHE SCIENTIFIQUE, priority 2015, dated 2022)

Legend:
hGal-7 homodimer = molecular target: T1, hGal-7 homodimer (Homo sapiens, UniProt P47929); assay: hGal-7 homodimer disruption, low-SDS native gel electrophoresis / Western blotting; format: biochemical; details: recombinant hGal-7 0.5 μM
T1 construct: made in house; host or cells: E. coli BL21 (DE3)
Experimental: (§1) Production of recombinant hGal-7 and hGal-1. Human Gal-7 cDNA was cloned into pET-22b(+) using Ndel and HindIII restriction enzymes. Human pET-Gal-1 vector was generously donated by Dr. S. Sato (McGill University, QC, Canada). The proteins were produced in E. coli BL21 (DE3) cells at 37° C. Isopropyl p-D-1-thiogalactopyranoside (IPTG) (1 mM) was added to the bacterial culture at OD600nm=0.6-0.7 and then incubated for 4 h at 37° C. to allow protein production. Bacterial pellets were resuspended in lysis buffer (0.7 mg/mL lysozyme, 10 mM Tris pH 8, 100 mM NaCl, 1 mM EDTA, 1 mM DTT and a protease inhibitor cocktail) and then incubated for 1 h at 37° C. prior to centrifugation for 30 min at 15,000×g (4° C.). The supernatant was then filtered with 500 mL bottle top filter ([…]) (Corning®, New York, N.Y., USA) and then ran through a lactose-agarose column (Sigma®, St. Louis, Mo., USA). The protein was eluted in 1 mL fractions with 150 mM lactose solution. Purified fractions were analyzed by SDS-PAGE. The hGal-7 was then concentrated and purified using Centrifugal filter units (Amicon® Ultra-15, 10K) (EMD®, Etobicoke, ON) in 20 mM potassium phosphate at pH 7.1. All subsequent experiments with the recombinant proteins were performed in the same buffer solution unless mentioned otherwise. Brilliant Coomassie blue was purchased from BioRad® (Bio-Rad Laboratories®, Mississauga, ON, Canada). The recombinant human Bcl-2 protein fragment was purchased from Abcam® (Abcam®, Cambridge, UK, Cat #ab73696).
Western blotting. For the apoptosis tests, whole-cell extracts were homogenized and resuspended in RIPA buffer (Thermo Fisher Scientific®, Rockford, Ill., USA) containing protease inhibitors (Roche®, Laval, QC, Canada). Equal amounts of whole-cell extracts (25 μg) were separated on SDS-PAGE and transferred onto nitrocellulose membranes (Bio-Rad Laboratories®). The membranes were first blocked with 5% milk [w/v] in TBS/0.5% Tween® 20 [v/v] for 1 h at room temperature and subsequently blotted overnight in a solution of TBS containing 3% BSA [w/v] and 0.5% Tween 20 [v/v]. The following antibodies were used: a rabbit anti-Poly-(ADP-ribose) polymerase (PARP)-1 (p25) polyclonal antibody (1:5000; Epitomics®, Burlingame, Calif., USA) and a mouse anti-β-actin (1:10000; Sigma-Aldrich®, St-Louis, Mo., USA). Secondary antibodies consisted of horseradish peroxidase-conjugated donkey anti-rabbit (GE Healthcare®, Buckinghamshire, England) and sheep anti-mouse (GE Healthcare®) IgG. Detection was performed using the enhanced chemiluminescence method (GE Healthcare®). For the recombinant protein tests, each peptide was dissolved and maintained in 20 mM potassium phosphate at pH 7.1. The recombinant proteins and peptide dilutions were pre-incubated for 1 h at 4° C. prior to gel migration. The native polyacrylamide gel was made without SDS to allow molecular weight differentiation between the dimer and monomer. The following antibodies were used: a goat anti-Gal-7 antibody (1:10000; R&D Systems®, Minneapolis, Minn., USA), a mouse anti-Gal-1 antibody (1:10000; Proteintech®, Chicago, Ill., USA) and a rabbit anti-Bcl-2 antibody (1:1000; Abeam®, Cambridge, UK). Secondary antibodies consisted of donkey anti-goat (R&D Systems®) or sheep anti-mouse and sheep anti-rabbit (GE Healthcare®) IgG. Detection was performed as described above.
To determine whether these peptides could inhibit the formation of the hGal-7 homodimer, recombinant hGal-7 (0.5 μM) was incubated with increasing concentrations of hGal-7(13-25), hGal-7(85-102), hGal-7(95-108) or hGal 7(129-135) and the formation of homodimers was measured. To measure the ability of the peptides to disrupt the formation of hGal-7 dimers, a mild denaturing (low SDS) native gel electrophoresis, a commonly used approach to visualize monomer-dimer equilibrium, was used (FIG. 1A and FIG. 6).

Jurkat T cells [1] = assay: hGal-7-induced apoptosis of Jurkat T cells, PARP-1 cleavage by Western blotting; format: cell-based; details: 4 h at 37° C., serum-free RPMI, FIG. 5A
Experimental: Western blotting. For the apoptosis tests, whole-cell extracts were homogenized and resuspended in RIPA buffer (Thermo Fisher Scientific®, Rockford, Ill., USA) containing protease inhibitors (Roche®, Laval, QC, Canada). Equal amounts of whole-cell extracts (25 μg) were separated on SDS-PAGE and transferred onto nitrocellulose membranes (Bio-Rad Laboratories®). The membranes were first blocked with 5% milk [w/v] in TBS/0.5% Tween® 20 [v/v] for 1 h at room temperature and subsequently blotted overnight in a solution of TBS containing 3% BSA [w/v] and 0.5% Tween 20 [v/v]. The following antibodies were used: a rabbit anti-Poly-(ADP-ribose) polymerase (PARP)-1 (p25) polyclonal antibody (1:5000; Epitomics®, Burlingame, Calif., USA) and a mouse anti-β-actin (1:10000; Sigma-Aldrich®, St-Louis, Mo., USA). Secondary antibodies consisted of horseradish peroxidase-conjugated donkey anti-rabbit (GE Healthcare®, Buckinghamshire, England) and sheep anti-mouse (GE Healthcare®) IgG. […]
(§2) It was thus tested whether hGal-7(129-135) could modulate the binding of hGal-7 on Jurkat T cells, a cell model that is commonly used to test the pro-apoptotic activity of galectins. For this purpose, recombinant hGal-7 was labeled with fluorescein isothiocyante (FITC) and its binding on the surface of Jurkat T cells was measured by flow cytometry in absence or presence of increasing concentrations of hGal-7(129-135). […]

[2] = molecular target: T2, recombinant human Gal-1 (hGal-1) (Homo sapiens, UniProt P09382); assay: hGal-1 dimer disruption (galectin selectivity control), low-SDS Western blotting; format: biochemical; details: recombinant hGal-1, FIG. 2C
T2 construct: made in house; host or cells: E. coli BL21 (DE3)
T2 sequence (P09382 2-135 limits assumed): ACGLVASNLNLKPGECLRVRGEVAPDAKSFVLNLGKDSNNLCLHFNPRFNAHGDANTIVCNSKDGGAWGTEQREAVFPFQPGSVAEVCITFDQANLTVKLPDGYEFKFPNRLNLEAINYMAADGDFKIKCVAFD
Experimental: as §1, with “The hGal-7 was then concentrated and purified using Centrifugal filter units (Amicon® Ultra-15, 10K) (EMD®, Etobicoke, ON) in 20 mM potassium phosphate at pH 7.1. All subsequent experiments with the recombinant proteins were performed in the same buffer solution unless mentioned otherwise. Brilliant Coomassie blue was purchased from BioRad® (Bio-Rad Laboratories®, Mississauga, ON, Canada). The recombinant human Bcl-2 protein fragment was purchased from Abcam® (Abcam®, Cambridge, UK, Cat #ab73696).” left out
To determine whether these peptides could inhibit the formation of the hGal-7 homodimer, recombinant hGal-7 (0.5 μM) was incubated with increasing concentrations of hGal-7(13-25), hGal-7(85-102), hGal-7(95-108) or hGal 7(129-135) and the formation of homodimers was measured. […]

Jurkat T cells [3] = assay: FITC-labeled hGal-7 binding on Jurkat T cells, flow cytometry; format: cell-based; details: FITC-labeled hGal-7 0.1 μM pre-incubated with peptide, FIG. 4
Experimental: FITC conjugation and hGal-7 binding assay. To assess hGal-7 binding onto Jurkat T cells, 5 μL of a 1.25 mg/mL fluorescein isothiocyanate (FITC)/DMSO solution was added to 300 μL of 1.7 μg/μL recombinant hGal-7 in a 0.1 M NaHCO3 pH 9.2 solution and incubated for 1 h at room temperature on a roller. FITC-labeled hGal-7 was then purified using a PD-10 Sepharose® column (GE healthcare) and eluted with PBS containing 0.01% [v/v] sodium azide. FITC-labeled hGal-7 (0.1 μM) was then pre-incubated with hGal-7(129-135) (or related peptides) in 20 mM potassium phosphate buffer pH 7.1 for 1 h at 4° C. Jurkat cells (5×10^5 cells per sample) were harvested in PBS-0.01% [v/v] sodium azide and incubated for 30 min on ice with the FITC-labeled hGal-7 with and without peptides. Cells were then washed with PBS-0.01% [v/v] sodium azide and resuspended in 400 μL of the same buffer and analyzed on a FACSCalibur® (BD Biosciences®).
as §2

[4] = 20 mM potassium phosphate pH 7.1, FIG. 2A

T1 sequence (P47929 2-136 limits assumed): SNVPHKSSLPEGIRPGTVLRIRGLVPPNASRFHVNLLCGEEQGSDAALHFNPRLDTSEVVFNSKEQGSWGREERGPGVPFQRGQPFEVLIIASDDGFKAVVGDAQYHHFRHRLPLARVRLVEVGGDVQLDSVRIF

## H-Leu-Asp-Ser-Val-Arg-Ile-Phe-NH2 (H-LDSVRIF-NH2; listed as Homo sapiens) [hGal-7(129-135), peptide corresponding to residues 129-135 of hGal-7]
hGal-7 homodimer; 0.1 mM lactose solution, FIG. 2D
  disruption of hGal-7 homodimers in the presence of lactose: not inhibited by the presence of lactose
hGal-7 homodimer; [4]
  concentration at which consistent decrease of hGal-7 homodimers starts: 10 µM
  saturation dose for decrease of hGal-7 homodimers: 100 µM
Jurkat T cells [1]
  inhibition of hGal-7-induced apoptosis, PARP-1 cleavage: inhibited the ability of hGal-7 to induce apoptosis in Jurkat T cells
[2]
  effect on hGal-1 dimer: No such effect was observed
Jurkat T cells [3]
  fluorescent intensity of Jurkat T cells due to FITC-labeled hGal-7 binding: increased the fluorescent intensity of Jurkat T cells in a concentration-dependent manner
